Here are results for one molecule from patent publication EP4681729A1 (Shanghai Mabgen Biotech Ltd., dated 2026).

The target of test [1] is T1, human PVRIG expressed on cells (human, UniProt Q6DKI7 1-326).
T1 sequence (looked up): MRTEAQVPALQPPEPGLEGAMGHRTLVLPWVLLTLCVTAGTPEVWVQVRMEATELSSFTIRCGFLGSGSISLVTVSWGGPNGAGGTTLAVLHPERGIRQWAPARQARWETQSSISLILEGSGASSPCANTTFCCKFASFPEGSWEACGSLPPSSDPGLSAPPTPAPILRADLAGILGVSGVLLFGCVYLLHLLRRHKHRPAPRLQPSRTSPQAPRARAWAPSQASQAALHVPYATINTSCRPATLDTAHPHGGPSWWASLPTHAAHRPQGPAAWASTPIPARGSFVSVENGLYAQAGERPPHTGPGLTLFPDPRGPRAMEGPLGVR
The experiment in a line: cell-based or functional assay.

In test [2] the target is T1, human PVRIG expressed on cells. The experiment in a line: cell-based or functional assay. This is another data set of the same source.

Like-named read-outs stand apart in the source and are kept apart here.

B1: Tab5 (antibody, V domains shown)
VH: EVQLVESGGGVVKPGGSLRLSCAASGFTFGTSSMNWVRQAPGKGLEWVAVISFDGTEIHYADSVKGRFTISRDNSKSTVFLQMNSLRPDDTALYYCAKGSGNIYFYSGMDVWGQGTTVTVSS
VL: DIQMTQSPSTLSASVGDRVTITCRAGQSISGWLAWFQQKPGKAPNLLIYETSTLESGVPSRFSGSGSGTEYTLTISSLQPDDFATYYCQQYYSYPLTFGQGTKVEIKR
As to B1, the “PVRIG reporter gene cell activity EC50” value came to 0.74 nM in test [1] and 1.38 nM in test [2].
